Laboratory results from patent US20110165066A1 (AbbVie / Abbott, published 2011).
Substitutions are numbered along the chain they refer to.

B1: 5G1-Chim (antibody, V domains shown)
VH: QVQLQQSGAELARPGTSVKLSCKASGYTFTTYGVSWVKQRTGQGLEWIGEIYPGNYNTYYNEKFRGKATLTADKSSSTAYMQLSSLTSEDSAVYFCSRWRTSYFSDYGYFDYWGQGTTLTVSS
VL: DVVMTQTPLSLPVSLGDQASISCRSSQSLVHSHGNTYLHWYLQKPGQSPKLLIYTVSNRFSGVPDRFSGSGSGTDFTLKISRVEAEDLGVYFCSQSTHVPYTFGGGTKLEIKR
notes: also called chimeric 5G1
B2: 13C5-Chim (antibody, human IgG1, V domains shown)
VH: QVTLKESGPGILQPSQTLSLTCSFSGFSLSTSDMGVDWIRQPSGKGLEWLAHIWWDDVKRYNPALKSRLTISKDTSSSQVFLMLASVDTADTATYYCARTVSSGYIYYAMDYWGQGTSVTVSS
VL: DIQMTQTASSLSASLGDRVTISCRASQDIRNYLNWYQRKPDGTVKLLIFYTSKLHSGVPSRFSGSGSGTDYSLTIRNLEQEDIATYFCQQGNTLPLTFGGGTKLEIKR
notes: also called chimeric 13C5
B3: 5G1.1 (antibody, human IgG1, V domains shown)
VH: EVQLVQSGAEVKKPGASVKVSCKASGYTFTTYGVSWVRQAPGQGLEWIGEIYPGNYNTYYNEKFRGKATMTTDTSTSTAYMELRSLRSDDTAVYYCSRWRTSYFSDYGYFDYWGQGTTVTVSS
VL: B1 VL with T7S, S14T, D17Q, Q18P, L42Q, K44R, K50R, L88V, F92Y, L109V
notes: Humanized
B4: 5G1.2 (antibody, human IgG1, V domains shown)
VH: B3 VH with M70L, T72A, T74K, R84S, Y95F
VL: B1 VL with T7S, S14T, D17Q, Q18P, L42Q, K44R, K50R, L88V, L109V
notes: Humanized
B5: 5G1.5 (antibody, human IgG1, V domains shown)
VH: B3 VH with E1Q, M70L, T72A, T74K, R84S, D89E, T118L
VL: DIVMTQSPLSLPVTPGQPASISCRSSQSLVHSHGNTYLHWYLQKPGQSPKLLIYTVSNRFSGVPDRFSGSGSGTDFTLKISRVEAEDVGVYYCSQSTHVPYTFGGGTKVEIK
notes: Humanized; The heavy chain row is printed 'VN 5G1.5'
B6: 13C5.1 (antibody, human IgG1, V domains shown)
VH: EVTLKESGPVLVKPTETLTLTCTFSGFSLSTSDMGVDWIRQPPGKALEWLAHIWWDDVKRYNPALKSRLTISKDTSKSQVVLTMTNMDPVDTATYYCARTVSSGYIYYAMDYWGQGTTVTVSS
VL: DIQMTQSPSSLSASVGDRVTITCRASQDIRNYLNWYQRKPGKVVKLLIYYTSKLHSGVPSRFSGSGSGTDFTLTISSLQPEDVATYYCQQGNTLPLTFGGGTKVEIKR
notes: Humanized
B7: 13C5.2 (antibody, human IgG1, V domains shown)
VH: B6 VH
VL: B6 VL with S7T, T22S, Y49F, F71Y, Y87F
notes: Humanized
B8: 13C5.5L2EL3F (antibody, V domains shown)
VH: EVTLRESGPGLVKPTQTLTLTCTLYGFSLSTSDMGVDWIRQPPGKGLEWLAHIWWDDVKRYNPALKSRLTISKDTSKNQVVLKLTSVDPVDTATYYCARTVSSGYIYYAMDYWGQGTLVTVSS
VL: DIQMTQSPSSLSASVGDRVTISCRASQDIRNYLNWYQQKPGKAPKLLIFYTSMKPRGVPSRFSGSGSGTDYTLTISSLQPEDIATYYCQQGLTPPLTFGGGTKVEIK
notes: constant regions not restated for this variant
B9: 13C5.5L2E (antibody, V domains shown)
VH: B8 VH
VL: B8 VL with L92N, P94L
notes: as for B8
B10: 13C5.5L3F (antibody, V domains shown)
VH: B8 VH
VL: B8 VL with M53K, K54L, P55H, R56S
notes: The heavy chain row is printed 'VH 13C5.5L2F'
B11: 21D9 (antibody, V domains shown)
VH: QVQLQQSGDDLVKPGASVKLSCKASGYTFTSYWINWIKQRPGQGLEWIGHIAPGSGETYDNEMFKDKAKLTVDTSSNTAYIHLSSLSSEDSAVYFCARGSFTFFYAMDYWGQGTSVTVSS
VL: DVLMTQTPLSLPVSLGDQASISCRSSQNIVHSNGKTYLEWYLQRPGQSPKLLIYKVSNRFSGVPDRFSGSGSGTDFTLKISRVEAEDLGVYYCFQGSHVPYTFGGGTKLEIKR
B12: 22D10 (antibody, V domains shown)
VH: B11 VH with N77S
VL: B11 VL
B13: 9C11-Chim (antibody, human IgG1, V domains shown)
VH: QVRLQQPGAELVRPGASVKLSCKASGYTFTSSWIHWVNQRPGQGLEWIGMIHPSDSETRLNQKFKDKATLTVDKSSSTAYMQLSSPTSEDSAVYYCASTATDFDYWGQGTTLTVSS
VL: DVVLTQTPLSLPVNIGDQASISCRSTQTLLNSDGFTYLDWYLQKPGQSPQLLIYLVSNRFSGVPDRFSGSGSGTDFTLKISRVEAEDLGVYYCFQNNYLPLTFGAGTKLELKR

Each binder was assayed against T1, human IL-13 wild type (human, UniProt P35225 35-146) (assay: SPR (Biacore)).
T1 construct: also called h IL-13; h IL-13 wt
T1 sequence (P35225 other isoform, or with tags, fused parts or gaps limits assumed): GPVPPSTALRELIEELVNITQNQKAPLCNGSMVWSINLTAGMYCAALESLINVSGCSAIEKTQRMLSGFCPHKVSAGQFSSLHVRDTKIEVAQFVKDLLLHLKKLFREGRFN
Method: (§1) The BIACORE assay (Biacore, Inc, Piscataway, N.J.) determines the affinity of antibodies with kinetic measurements of on-, off-rate constants. […] All chemicals were obtained from Biacore® AB (Uppsala, Sweden) or otherwise from a different source as described in the text. Approximately 5000 RU of goat anti-mouse IgG, (Fcγ), fragment specific polyclonal antibody (Pierce Biotechnology Inc, Rockford, Ill.) diluted in 10 mM sodium acetate (pH 4.5) was directly immobilized across a CM5 research grade biosensor chip using a standard amine coupling kit according to manufacturer's instructions and procedures at 25 μg/ml. Unreacted moieties on the biosensor surface were blocked with ethanolamine. Modified carboxymethyl dextran surface in flowcell 2 and 4 was used as a reaction surface. Unmodified carboxymethyl dextran without goat anti-mouse IgG in flow cell 1 and 3 was used as the reference surface. For kinetic analysis, rate equations derived from the 1:1 Langmuir binding model were fitted simultaneously to association and dissociation phases of all eight injections (using global fit analysis) with the use of Biaevaluation 4.0.1 software. Purified antibodies were diluted in HEPES-buffered saline for capture across goat anti-mouse IgG specific reaction surfaces. Mouse antibodies to be captured as a ligand (25 μg/ml) were injected over reaction matrices at a flow rate of 5 μl/min. The association and dissociation rate constants, kₒₙ (unit M⁻¹s⁻¹) and koff (unit s⁻¹) were determined under a continuous flow rate of 25 μl/min Rate constants were derived by making kinetic binding measurements at ten different antigen concentrations ranging from 10-200 nM. […] Binding is recorded as a function of time and kinetic rate constants are calculated.
In the case of B1, the Kd is reported as 0.0417 nM, the koff is reported as 3.82e-05 s⁻¹ and the kon is reported as 915000 M⁻¹ s⁻¹. B2 showed a Kd of 0.0568 nM, a koff of 9.65e-05 s⁻¹ and a kon of 1.7e+06 M⁻¹ s⁻¹. Binder B3 has a Kd of 0.0272 nM, a koff of 2.14e-05 s⁻¹ and a kon of 786000 M⁻¹ s⁻¹. In the case of B4, the Kd is reported as 0.105 nM, the koff is reported as 8.81e-05 s⁻¹ and the kon is reported as 835000 M⁻¹ s⁻¹. B5 was tested, and the Kd was 0.022 nM, the koff was 1.91e-05 s⁻¹ and the kon was 869000 M⁻¹ s⁻¹. Binder B6 has a Kd of 0.71 nM, a koff of 0.000474 s⁻¹ and a kon of 668000 M⁻¹ s⁻¹. B7 showed a Kd of 0.0979 nM, a koff of 0.000123 s⁻¹ and a kon of 1.26e+06 M⁻¹ s⁻¹. B8 was tested, and the Kd was 0.25 nM. Binder B9 has a Kd of 0.12 nM. B10 gave a Kd of 0.24 nM.

These binders were tested against T2, cynomolgus IL-13 (cynomolgus, UniProt Q0PW92 21-132) (assay: SPR (Biacore)).
T2 construct: also called cyno IL-13; wild type cyno IL-13
T2 sequence (Q0PW92 entry or part of it): as the sequence (P35225 other isoform, or with tags, fused parts or gaps limits assumed) above, with G1S, R10K, M42V, S67N, H83R, L100V, R110Q counted along it
Method: as §1
Work on B8 yielded a Kd of 0.32 nM. B9 showed a Kd of 0.52 nM. With B10 the Kd was 0.19 nM.

The binders below were run against T3, rhesus IL-13 (rhesus, UniProt Q864V6 21-132, limits assumed) (assay: SPR (Biacore)).
T3 sequence (Q864V6 21-132 limits assumed): as the sequence (P35225 other isoform, or with tags, fused parts or gaps limits assumed) above, with G1S, P5R, R10K, M42V, S67N, H83R, L100V counted along it
Method: as §1
B8 was tested, and the Kd was 0.13 nM. In the case of B9, the Kd is reported as 0.29 nM. With B10 the Kd was 0.11 nM.

Each binder was assayed against T1, human IL-13 wild type (assay: cell-based or functional assay).
In the case of B11, the “Average IC50, IL-13-induced TARC production by A-549 cells” value (from here on “Average IC50”) is reported as 0.0682 nM. In the case of B12, the “Average IC50” value is reported as 0.284 nM.

These binders were tested against T4, human IL-13 variant (R130Q) (human, UniProt P35225 35-146) (assay: cell-based or functional assay).
T4 sequence (P35225 35-146 limits assumed, stated change not applied): as the sequence (P35225 other isoform, or with tags, fused parts or gaps limits assumed) above, with R110Q counted along it
B11 was tested, and the “Average IC50” value was 0.136 nM. With B12 the “Average IC50” value was 0.54 nM.

The binders below were run against T2, cynomolgus IL-13 (assay: cell-based or functional assay).
With B11 the “Average IC50” value was 0.34 nM. With B12 the “Average IC50” value was 6.11 nM.

Molecular target: T1, human IL-13 wild type
Assay: cell-based or functional assay
Remark: another data set of the same source
With B1 the “Average IC50” value was 0.041 nM. With B2 the “Average IC50” value was 0.191 nM. B13 was tested, and the “Average IC50” value was 0.123 nM.

Molecular target: T1, human IL-13 wild type
Assay: cell-based or functional assay
Remark: another data set of the same source
With B1 the “Potency (IC50), A-549 bioassay” value was 0.0769 nM. With B2 the “Potency (IC50), A-549 bioassay” value was 0.107 nM. For B3, the “Potency (IC50), A-549 bioassay” value was 0.029 nM. In the case of B4, the “Potency (IC50), A-549 bioassay” value is reported as 0.0295 nM. With B5 the “Potency (IC50), A-549 bioassay” value was 0.114 nM. With B6 the “Potency (IC50), A-549 bioassay” value was 0.868 nM. B7 was tested, and the “Potency (IC50), A-549 bioassay” value was 0.193 nM.

Molecular target: T4, human IL-13 variant (R130Q)
Assay: cell-based or functional assay
Remark: another data set of the same source
In the case of B1, the “Potency (IC50), A-549 bioassay” value is reported as 0.0692 nM. In the case of B2, the “Potency (IC50), A-549 bioassay” value is reported as 0.037 nM. B3 was tested, and the “Potency (IC50), A-549 bioassay” value was 0.0741 nM. With B4 the “Potency (IC50), A-549 bioassay” value was 0.0553 nM. For B5, the “Potency (IC50), A-549 bioassay” value was 0.0655 nM. In the case of B6, the “Potency (IC50), A-549 bioassay” value is reported as 0.369 nM. With B7 the “Potency (IC50), A-549 bioassay” value was 0.13 nM.

Molecular target: T1, human IL-13 wild type
Assay: cell-based or functional assay
Remark: another data set of the same source
For B8, the “Potency (IC50), A-549 bioassay” value was 0.12 nM. B9 was tested, and the “Potency (IC50), A-549 bioassay” value was 0.18 nM. B10 was tested, and the “Potency (IC50), A-549 bioassay” value was 0.15 nM.

Molecular target: T2, cynomolgus IL-13
Assay: cell-based or functional assay
Remark: another data set of the same source
B8 was tested, and the “Potency (IC50), A-549 bioassay” value was 0.48 nM. With B9 the “Potency (IC50), A-549 bioassay” value was 1.2 nM. With B10 the “Potency (IC50), A-549 bioassay” value was 0.46 nM.

What follows are binders tested against T3, rhesus IL-13 (assay: cell-based or functional assay).
B8 was tested, and the “Potency (IC50), A-549 bioassay” value was 0.26 nM. In the case of B9, the “Potency (IC50), A-549 bioassay” value is reported as 0.4 nM. In the case of B10, the “Potency (IC50), A-549 bioassay” value is reported as 0.14 nM.

Each binder was assayed against T1, human IL-13 wild type (assay: SPR (Biacore), mAb captured, IL-13 as analyte).
Method: as §1
B11 gave a Kd of 0.0772 nM, a koff of 6.58e-05 s⁻¹ and a kon of 852000 M⁻¹ s⁻¹. With B12 the Kd was 0.356 nM, the koff was 6.5e-05 s⁻¹ and the kon was 182000 M⁻¹ s⁻¹.

What follows are binders tested against T4, human IL-13 variant (R130Q) (assay: SPR (Biacore), mAb captured, IL-13 as analyte).
Method: as §1
In the case of B11, the Kd is reported as 0.0744 nM, the koff is reported as 6.18e-05 s⁻¹ and the kon is reported as 831000 M⁻¹ s⁻¹. Binder B12 has a Kd of 0.632 nM, a koff of 0.000155 s⁻¹ and a kon of 245000 M⁻¹ s⁻¹.

These binders were tested against T5, mouse IL-13 (mouse, UniProt P20109 26-131, limits assumed) (assay: indirect ELISA, captured mAb, biotinylated mouse IL-13).
T5 construct: also called mIL-13; murine IL-13
T5 sequence (looked up): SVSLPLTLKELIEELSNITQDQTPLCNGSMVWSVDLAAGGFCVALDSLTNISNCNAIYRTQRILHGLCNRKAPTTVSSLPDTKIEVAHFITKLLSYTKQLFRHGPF
Method: Murine anti-human IL-13 mAbs were prepared at various concentrations ranging from 0.1 to 100 ng/ml in PBS containing 0.1% BSA; 50 ul of each antibody dilution was added to the coated ELISA plate and incubated for 1 hour at room temperature. Wells were washed 3 times with PBS containing 0.05% Tween-20. […] Wells were washed 3 times with PBS containing 0.05% Tween-20. Streptavidin HRP (Pierce #21126, Rockland, Ill.) was diluted 1:20000 in PBS containing 0.1% BSA; […] was added and the plates incubated for 1 hour at room temperature. Plates were washed 3 times with PBS containing 0.05% Tween-20. Fifty microliters of TMB solution (Sigma # T0440, St. Louis, Mo.) was added to each well and incubated for 10 minutes at room temperature. The reaction was stopped by addition of 1N sulphuric acid. Plates were read spectrophotmetrically at a wavelength of 450 nm.
B11: no binding (tested: 0.1 to 100 ng/ml). B12: no binding (tested: 0.1 to 100 ng/ml).
